Source: the supplement of paper PMC9170038

Test system: MS2 coat protein
Test: apparent KD of MS2 coat protein; designed switch direction (-1 OFF switch, 1 ON switch): -1; higher = weaker reporter binding
Method in brief: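 Designed RNA switches with common flanks were made on Illumina chips by stalled E. coli RNA polymerase. Titration with SNAP-549-labelled MS2 coat protein doubled from 0.7 or 1.5 nM up to 3 µM. Apparent KD is each design's median over clusters after curve-fitting normalised fluorescence.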

[1] = input ligand: microRNA oligo, concentration not stated
[2] = Eterna round: R95, input ligand: FMN 200 uM
[3] = Eterna round: R95, input ligand: microRNA oligo, concentration not stated
[4] = Eterna round: R95, input ligand: none

Sequence	apparent KD of MS2 coat protein (input ligand: FMN 200 uM) [nM]	apparent KD of MS2 coat protein [1] [nM]	apparent KD of MS2 coat protein (input ligand: none) [nM]	apparent KD of MS2 coat protein [2] [nM]	apparent KD of MS2 coat protein [3] [nM]	apparent KD of MS2 coat protein [4] [nM]
UUAAAACGUGUAGGAUAUGCGUGGCGAAGCUAUGCAGAAGGACAUGAGGAUCACCCAUGUUCCUGCGUCCGCGUACGGAUGCAA [JL Eng1 1.21 mod 2] (Eterna round: R96, puzzle: Exclusion NG 1)	18	11.9	13.1			
UAUGGUAAAGUCAGGAUAUACGUGCAGAUUUCUAGGUAGAAGGGACAUGAGGAUCACCCAUGUAUGGUAGUGUU [Ex4 #45] (Eterna round: R97, puzzle: Brourd's mod of Exclusion 4)	75.5		81.2			
AAUAAUAAGGAGGAUAUCGUAACCGAAAGGUUACGAGAAGGCCUAACAUGAGGAUCACCCAUGUUCCUCAAUAA [Mat - Exclusion 6 - Eli Mod - D56] (puzzle: Exclusion 6)				468	186	389
ACAUGUUAUCUAGGAUAUUGGACACAUGAGGAUCACCCAUGUACCCGGAGGCUUUACUAUGAGUUCGAGAAGGAGAUGUACAUG [Ex NG2 #71] (Eterna round: R96, puzzle: Exclusion NG 2)	97.9	67.6	73.1			
CUCUCACAUGAGGAUCACCCAUGUUAGGAUAUUCCGUAGCGACUUACAAGAGGAGCAGGAAGAAGGAGCCUGGC [Eternabot (L1) Solution 40] (Eterna round: R97, puzzle: Exclusion 1)	343		435			
CUCAUUUGUCAGGAUAUCGUGAGGCUAAUUAUACGAGAAGGGACGACAUGAGGAUCACCCAUGUGGUCUUUGAG [JR_Ex6_Sub082] (Eterna round: R97, puzzle: Exclusion 6)	161		33.3			
UGGUAACAUGAGGAUCACCCAUGUCAGGAUAUCAGUAAGAAUAGAUUAGAUUAGAAUAUGAGAAGGGACUAUAU [Excluse me! 4 - Jieux - Exclusion 1] (puzzle: Exclusion 1)					30.9	
GAAAACGUAGGAUAUUAAUACUCAGACAUGAGGAUCACCCAUGUUUGGUGGGUCGGAGAAUGAGAAGGGCGAUGAA [EX5 #14] (Eterna round: R97, puzzle: Exclusion 5)	82.3		89.7			
AACAGUCUGGAGGAUAUGCUGGAUAAAUAUCUGGCAGAAGGCUGGACAUGAGGAUCACCCAUGUAAAUACUACC [Omei Ex6 A2b] (Eterna round: R97, puzzle: Exclusion 6)	54.5		24.9			
CCAUCGUGUGUGAGGAUAUGCUGGUCCUUGGAUCAGCAGAAGGCACAUGAGGAUCACCCAUGUGAAAACGAUGG [Mat - Exclusion 4 - JL Mod - D88] (puzzle: Brourd's mod of Exclusion 4)					16.8	
GCUGGUCGAGGAUAUACAUGAGGAUCACCCAUGUGAUCAGCAGUCCUCGGACUGCAAUGUAGAAGGUGACCAGC [E3/1-B1] (Eterna round: R97, puzzle: Exclusion 3)	583		2270			
CACUUGGUAGGAUAUGAAGGGAGGAACAUGAGGAUCACCCAUGUCCUGGAAUCCAGUCCGUCAGAAGGACCUGAGC [Eternabot (L1) Solution 44] (Eterna round: R97, puzzle: Exclusion 5)	24.4		21.6			
AUAUCAAGCAAGGAUAUGCAAAUGGUUAUUUAUGCAGAAGGUGCGACAUGAGGAUCACCCAUGUUUCUGGGUUU [JR_E6_Sub050] (puzzle: Exclusion 6)					68.2	
CAUUACUGCAGGCUUCGGGACAUGAGGAUCACCCAUGUUCGUCUUAUUGAUCUAGGUACGCUGACGUACCUAGAUCU [JL-sv1-2.25 Brourd mod] (puzzle: Sensor v3, turn-off variant 1)				17.3	16.1	15.6
CUGCUGGAGCUUUGCUUUGGUCGUACAUGAGGAUCACCCAUGUAGGAUAUGGUAGGAUUUGCUUGCUAGAAGGAUAGAGUGGUC [salish99_ExNG3_r04_610] (Eterna round: R96, puzzle: Exclusion NG 3)	92.7	36.1	54.5			
UUUAUGUCAGGAUAUACAUGAGGAUCACCCAUGUAUAUCUAAAAAUAUACAUGGGUAUGUAGAAGGGACCUCCU [Omei Ex3 Pseudoloop 2] (Eterna round: R97, puzzle: Exclusion 3)	52.6		146			

Sequence	apparent KD of MS2 coat protein (input ligand: FMN 200 uM) [nM]	apparent KD of MS2 coat protein [1] [nM]	apparent KD of MS2 coat protein (input ligand: none) [nM]	apparent KD of MS2 coat protein [2] [nM]	apparent KD of MS2 coat protein [3] [nM]	apparent KD of MS2 coat protein [4] [nM]
GGCCCGGGAGGAUAUACAAUGGGCUCGGGAAAUCGGGCUCGACAUGAGGAUCACCCAUGUAGAAGGCCCGGGCC [-36.5, -34.6 kcal A 24%, 4,0] (Eterna round: R97, puzzle: Exclusion 2)	34		21.8			
CGACAGGGAGGAUAUACAUGAGGAUCACCCAUGUUCAAGCGUCCUUGAACUACCUCUGGUAGAAGGCCCUAAAG [jl-ex3-4.67 ViennaUCT mod] (Eterna round: R97, puzzle: Exclusion 3)	44.6		123			
UUGAAGUCGUCAGGAUAUAGAUUUAAUGUCAUGCGUAUGUUCUUACAUGAGGAUCACCCAUGUCGCUAGAAGGGACUAUAGAUU [JR_ExcNG2_Sub008] (Eterna round: R96, puzzle: Exclusion NG 2)	54.6	35.1	45.1			
GCGAAAGCAAAACAAGUGAACAUGAGGAUCACCCAUGUCCUCAUUUGCUCGUCUUAUAAGCUAUGCGAAAGCAUAGC [Sensor 3, v1 - 9] (puzzle: Sensor v3, turn-off variant 1)				99	1220	96.7
AUUGAUAGCACAGGAUAUUGAGAUUUGAAUUGACAAGAAGGGUGUACAUGAGGAUCACCCAUGUAAUGGCUGCCUCGUUGAUUA [JR_ExcNG1_Sub005] (Eterna round: R96, puzzle: Exclusion NG 1)		45.6				
CUGGUCCGAGGAUAUAUUAUGUGAUACAUGAGGAUCACCCAUGUAAUAUGAUGGAAGUAAAUAGAAGGCGGACUAG [Mat - Exclusion 5 - JL mod - D46] (puzzle: Exclusion 5)				42.5	55.8	58.1
CUUUUGUGAGGAUAUUAAUAGUAAGUAAAUAAAAUUAUUACUAAGAAGGCACAUGAGGAUCACCCAUGUUUCUC [EX4 #83] (Eterna round: R97, puzzle: Exclusion 4)	76.8		41.8			
UUUAUGUCAGGAUAUGAUUAGAUCUACUUCGGUAGAUCUAAUCAGAAGGGACAUGAGGAUCACCCAUGUAGUUU [Ex4 - 3 - 13] (puzzle: Exclusion 4)					119	
CGGCUACGAUGAGGAUAUACGCACAUGAGGAUCACCCAUGUAAAUCACGGGUAAAGAUCGUCAUCGUAGAAGGCAUAAGGGCCC [Ormale] (Eterna round: R96, puzzle: Exclusion NG 2)	33	23.9	30.1			
AGUACUAACACGGCUGUGUUAGUACAAUAAGCUUGUGAAACAUGAGGAUCACCCAUGUCCUCAUAAGCUCGUCUUAU [salish99_TOv2_r3_078] (puzzle: Sensor v3, turn-off variant 2)				18	580	15.6
AAACCUGCCCAUGACCGCAAGCUUUUUGCUUGUCUUACCACAUGAGGAUCACCCAUGUGGCAUGGGCUCCUUAUAAA [Xemave] (puzzle: Sensor v3, turn-off variant 2)				14.2	11.8	11.7
CAGUACUGAGGAUAUACAUGAGGAUCACCCAUGUUCCAAGGCUAGGAAACUAGCAAAAGUAGAAGGCAGUACUG [828 mod 2 m3] (Eterna round: R97, puzzle: Exclusion 3)	472		24.5			
CUUCGACAUGAGGAUCACCCAUGUCAGGAUAUUGUUUAUCUGGUUUUUUACAGAUAUACAAGAAGGGAUGUGUU [LRO-Excl1-02] (puzzle: Exclusion 1)					25.9	
CUCCUACAUGAGGAUCACCCAUGUCAGGAUAUCUCAGUGGCACCUAAAGGCGCCACCCAGAGAAGGGACGUGCA [Soistiis] (puzzle: Exclusion 1)					10.6	
CUUUUGUGAGGAUAUUAGUAGUAAAUAAAUAAAAUUACUACUGAGAAGGCACAUGAGGAUCACCCAUGUUCCUC [Salish 062 v16] (Eterna round: R97, puzzle: Exclusion 4)	358		42.9			
CAUACUCAAGUCAGGAUAUAGACUCGGAUACGGAUCUAGAAGGGACAUGAGGAUCACCCAUGUAGAGAGUAAAG [EX-4 Malc #26] (puzzle: Brourd's mod of Exclusion 4)				60.9	28.1	25
